The target in the data set is T1, AaNusB (Aquifex aeolicus, UniProt O66530 1-148).
T1 sequence: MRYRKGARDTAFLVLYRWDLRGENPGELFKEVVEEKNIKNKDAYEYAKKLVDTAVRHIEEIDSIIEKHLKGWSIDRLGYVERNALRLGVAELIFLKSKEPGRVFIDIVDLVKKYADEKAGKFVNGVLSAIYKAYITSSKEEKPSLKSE
As to the kind of experiment: X-ray crystallography.

B1: AaBoxA 12-mer RNA self-duplex (supercoil-forming) (dsRNA)
RNA 1: GGCUCCUUGGCA
RNA 2: GGCUCCUUGGCA
B1: the binding result is “binds”.

The values are drawn from article PMC3518024.
